The Immune Epitope Database (IEDB)

Legend:
HLA-A*24:02 = experiment: IEDB peptide-MHC binding, purified MHC/competitive/radioactivity; filed as Kd, often an IC50 or EC50 that approximates it; ≥ and ≤ were set here for values at or beyond the usual limits of such assays
HLA-A*26:01 = experiment: as above
HLA-A*30:02 = experiment: as above
HLA-A*29:02 = experiment: as above
HLA-A*01:01 = experiment: as above
HLA-A*23:01 = experiment: as above
HLA-A*02:01 [1] = experiment: IEDB peptide-MHC binding, purified MHC/competitive/fluorescence; ≥ and ≤ were set here for values at or beyond the usual limits of such assays
HLA-A*11:01 = experiment: IEDB peptide-MHC binding, purified MHC/competitive/radioactivity; filed as Kd, often an IC50 or EC50 that approximates it; ≥ and ≤ were set here for values at or beyond the usual limits of such assays; conditions: source organism: Vaccinia virus WR
HLA-A*68:01 = experiment: as above; conditions: source organism: Vaccinia virus WR
HLA-A*33:01 = experiment: as above; conditions: source organism: Vaccinia virus WR
HLA-A*31:01 = experiment: as above; conditions: source organism: Vaccinia virus WR
HLA-A*03:01 = experiment: as above; conditions: source organism: Vaccinia virus WR
HLA-A*02:01 [2] = experiment: IEDB peptide-MHC binding, purified MHC/direct/fluorescence; filed as Kd, often an IC50 or EC50 that approximates it; ≥ and ≤ were set here for values at or beyond the usual limits of such assays
HLA-A*69:01 = experiment: as above
HLA-B*58:01 = experiment: as above; conditions: source organism: Mammarenavirus juninense
[3] = source organism: SARS coronavirus Tor2
[4] = source organism: Zaire ebolavirus
[5] = source organism: Dengue virus 1 Brazil/97-11/1997
[6] = source organism: Mammarenavirus brazilense
[7] = source organism: Mammarenavirus machupoense
[8] = source organism: Clostridium botulinum
[9] = source organism: Sudan ebolavirus
[10] = source organism: Dengue virus 4 Philippines/H241/1956
[11] = source organism: Lassa virus Josiah
[12] = source organism: Mammarenavirus whitewaterense
[13] = source organism: Mammarenavirus guanaritoense
[14] = source organism: Lassa virus GA391
[15] = source organism: Entamoeba histolytica HM-1:IMSS

ATEETFKLSY showed a Kd (HLA-A*24:02; [3]) of no less than 70300 nM, a Kd (HLA-A*26:01; [3]) of 11700 nM and a Kd (HLA-A*30:02; [3]) of 387 nM. It also gave a Kd (HLA-A*29:02; [3]) of 224 nM, a Kd (HLA-A*01:01; [3]) of 54.4 nM and a Kd (HLA-A*23:01; [3]) of no less than 52500 nM.

For ATGFGTNET, the IC50 (HLA-A*02:01 [1]; [4]) was no less than 393000 nM.

ATLLAVSGVY showed a Kd (HLA-A*26:01; [5]) of 2290 nM, a Kd (HLA-A*30:02; [5]) of 2.47 nM and a Kd (HLA-A*01:01; [5]) of 4920 nM.

Sequence AYVNQAHHI has a Kd (HLA-A*24:02; [6]) of 66.2 nM, a Kd (HLA-A*29:02; [6]) of no less than 73300 nM and a Kd (HLA-A*23:01; [6]) of 47.6 nM.

In the case of CGDPSSFEY, the Kd (HLA-A*24:02; [7]) is reported as no less than 64100 nM, the Kd (HLA-A*26:01; [7]) is reported as no less than 77900 nM and the Kd (HLA-A*30:02; [7]) is reported as 421 nM. The Kd (HLA-A*29:02; [7]) was 834 nM, the Kd (HLA-A*01:01; [7]) was 39.4 nM and the Kd (HLA-A*23:01; [7]) was no less than 77700 nM.

CTPPALNCY was tested, and the Kd (HLA-A*24:02; [3]) was no less than 77600 nM, the Kd (HLA-A*26:01; [3]) was no less than 43600 nM and the Kd (HLA-A*30:02; [3]) was 4790 nM. The Kd (HLA-A*29:02; [3]) was 1300 nM, the Kd (HLA-A*01:01; [3]) was no less than 69400 nM and the Kd (HLA-A*23:01; [3]) was no less than 32400 nM.

DMFLTSVINR was tested, and the Kd (HLA-A*11:01) was 2420 nM, the Kd (HLA-A*68:01) was 10.2 nM and the Kd (HLA-A*33:01) was 2.3 nM. For the same sequence, the Kd (HLA-A*29:02; source organism: Vaccinia virus WR) was no less than 42900 nM, the Kd (HLA-A*31:01) was 6.58 nM and the Kd (HLA-A*03:01) was 965 nM.

EIEPKLDGYY showed a Kd (HLA-A*24:02; [3]) of no less than 70300 nM, a Kd (HLA-A*26:01; [3]) of 163 nM and a Kd (HLA-A*30:02; [3]) of 534 nM. The Kd (HLA-A*29:02; [3]) was 7390 nM, the Kd (HLA-A*01:01; [3]) was 55.1 nM and the Kd (HLA-A*23:01; [3]) was no less than 70000 nM.

ELSPRWYFYY showed a Kd (HLA-A*24:02; [3]) of 9440 nM, a Kd (HLA-A*26:01; [3]) of 4.04 nM and a Kd (HLA-A*30:02; [3]) of 60.1 nM. The Kd (HLA-A*29:02; [3]) was 8.01 nM, the Kd (HLA-A*01:01; [3]) was 91.4 nM and the Kd (HLA-A*23:01; [3]) was 8810 nM.

With EYADVFHLYL the Kd (HLA-A*24:02; [3]) was 16.7 nM, the Kd (HLA-A*26:01; [3]) was 1970 nM and the Kd (HLA-A*30:02; [3]) was 1350 nM. The Kd (HLA-A*29:02; [3]) was 160 nM, the Kd (HLA-A*01:01; [3]) was 85.5 nM and the Kd (HLA-A*23:01; [3]) was 9.55 nM.

With FLWSSIIFK the Kd (HLA-A*02:01 [2]; [8]) was 4430 nM and the Kd (HLA-A*69:01; [8]) was 7000 nM.

FLWWNAAPA showed a Kd (HLA-A*69:01; source organism: Mycobacterium tuberculosis) of no more than 1 nM.

FMNAVGHDW showed a Kd (HLA-B*58:01) of 71 nM.

Work on FRSGVPPKV yielded an IC50 (HLA-A*02:01 [1]; [9]) of no less than 169000 nM.

FSSLPSYAAY gave a Kd (HLA-A*24:02; [3]) of no less than 70300 nM, a Kd (HLA-A*26:01; [3]) of 261 nM and a Kd (HLA-A*30:02; [3]) of 2.77 nM. For the same sequence, the Kd (HLA-A*29:02; [3]) was 8.85 nM, the Kd (HLA-A*01:01; [3]) was 2.04 nM and the Kd (HLA-A*23:01; [3]) was no less than 70000 nM.

GIKCIKKGV was tested, and the IC50 (HLA-A*02:01 [1]; source organism: Vaccinia virus) was no less than 102000 nM.

Sequence GLAGLQTDV has a Kd (HLA-A*02:01 [2]; source organism: Giardia intestinalis) of 175 nM.

Work on GTGPEASLPY yielded a Kd (HLA-A*24:02; [3]) of no less than 70300 nM, a Kd (HLA-A*26:01; [3]) of 412 nM and a Kd (HLA-A*30:02; [3]) of 920 nM. The Kd (HLA-A*29:02; [3]) was 117 nM, the Kd (HLA-A*01:01; [3]) was 349 nM and the Kd (HLA-A*23:01; [3]) was no less than 70000 nM.

With GVAGLITGG the IC50 (HLA-A*02:01 [1]; [4]) was no less than 77000 nM.

Sequence GVPLLAMGCY has a Kd (HLA-A*30:02; [10]) of 105 nM.

Sequence GYCLTRWMLI has a Kd (HLA-A*24:02; [11]) of 1100 nM, a Kd (HLA-A*29:02; [11]) of 12200 nM and a Kd (HLA-A*23:01; [11]) of 242 nM.

HDHHFTPQI was tested, and the Kd (HLA-A*24:02; [12]) was no less than 77500 nM, the Kd (HLA-A*26:01; [12]) was no less than 77900 nM and the Kd (HLA-A*30:02; [12]) was no less than 76900 nM. The Kd (HLA-A*29:02; [12]) was no less than 78900 nM, the Kd (HLA-A*01:01; [12]) was no less than 78100 nM and the Kd (HLA-A*23:01; [12]) was no less than 45300 nM.

HLTTLATIS gave an IC50 (HLA-A*02:01 [1]; [4]) of 69800 nM.

For HSVGFDYVY, the Kd (HLA-A*24:02; [3]) was no less than 77600 nM, the Kd (HLA-A*26:01; [3]) was 586 nM and the Kd (HLA-A*30:02; [3]) was 11.9 nM. It also gave a Kd (HLA-A*29:02; [3]) of 157 nM, a Kd (HLA-A*01:01; [3]) of 14900 nM and a Kd (HLA-A*23:01; [3]) of no less than 77800 nM.

IILFQKAFS was tested, and the IC50 (HLA-A*02:01 [1]; [9]) was 67700 nM.

In the case of ILDGKNCTL, the Kd (HLA-A*02:01 [2]; source organism: Influenza A virus (A/turkey/Canada-Ontario/NS-01839-1/05(H3))) is reported as 95.1 nM.

In the case of ILWDYFSLV, the Kd (HLA-A*02:01 [2]; source organism: Mammarenavirus amapariense) is reported as 0.2 nM.

Sequence ISEPTIHLV has a Kd (HLA-A*24:02; [13]) of no less than 77500 nM, a Kd (HLA-A*26:01; [13]) of no less than 77900 nM and a Kd (HLA-A*30:02; [13]) of 4890 nM. It also gave a Kd (HLA-A*29:02; [13]) of no less than 78900 nM, a Kd (HLA-A*01:01; [13]) of 626 nM and a Kd (HLA-A*23:01; [13]) of 15400 nM.

ISQHNYRPGY was tested, and the Kd (HLA-A*30:02; [5]) was 83.8 nM and the Kd (HLA-A*01:01; [5]) was 11100 nM.

ISSTPFAEY showed a Kd (HLA-A*30:02; [10]) of 319 nM and a Kd (HLA-A*01:01; [10]) of 1890 nM.

KATLTEGVY showed a Kd (HLA-A*30:02; [10]) of 40.1 nM.

KDFKCFNLI was tested, and the Kd (HLA-A*24:02; [14]) was 792 nM, the Kd (HLA-A*26:01; [14]) was no less than 77900 nM and the Kd (HLA-A*30:02; [14]) was no less than 33600 nM. For the same sequence, the Kd (HLA-A*29:02; [14]) was no less than 78900 nM, the Kd (HLA-A*01:01; [14]) was 1180 nM and the Kd (HLA-A*23:01; [14]) was 395 nM.

In the case of KLYDSVYLT, the Kd (HLA-A*02:01 [2]; [15]) is reported as 7.6 nM and the Kd (HLA-A*69:01; [15]) is reported as no less than 20000 nM.

KWDLLKYDF gave a Kd (HLA-A*24:02; [3]) of no less than 28400 nM, a Kd (HLA-A*26:01; [3]) of no less than 77900 nM and a Kd (HLA-A*30:02; [3]) of 89.3 nM. For the same sequence, the Kd (HLA-A*29:02; [3]) was 4.95 nM, the Kd (HLA-A*01:01; [3]) was no less than 78100 nM and the Kd (HLA-A*23:01; [3]) was 12700 nM.

LFQLIFFLT was tested, and the Kd (HLA-A*24:02; [6]) was no less than 22300 nM, the Kd (HLA-A*26:01; [6]) was no less than 77900 nM and the Kd (HLA-A*30:02; [6]) was 6090 nM. For the same sequence, the Kd (HLA-A*01:01; [6]) was 3330 nM.

In the case of LFWAVKPKI, the Kd (HLA-A*24:02; [6]) is reported as 2770 nM, the Kd (HLA-A*29:02; [6]) is reported as 9350 nM and the Kd (HLA-A*23:01; [6]) is reported as 2120 nM.
